Tests used:
[1] = system: TGF-β receptor serine threonine kinases (ALK1-7); experiment: Panel of small molecule ALK inhibitors: inhibin-induced signaling and angiogenesis; assay type: cell-based; conditions: preliminary screen of ALK inhibitors
Description: The inhibin-α activation of the SMAD1/5 pathway was also examined to determine which receptor type is required. TGF-β receptor serine threonine kinases (ALK1-7) are used by other TGF-β ligands. Testing was done to determine which Type I receptor is utilized by inhibin by using a panel of small molecule inhibitors as a preliminary screen for different ALKs. […] Similarly, three type II receptors are expressed in cells: TBRII, ACTRII and BMPRII.

[2] = system: HMvEC-1 cells; experiment: Three-dimensional capillary sprouting and tube formation (number of meshes); assay type: cell-based, human
Method: FIG. 25 illustrates three-dimensional capillary sprouting and tube formation of HMvEC-1 cells in the presence of conditioned media (CM) from shControl SKOV3 cancer cells or CM from shINHA SKOV3 cancer cells (top), in the presence of CM from shControl SKOV3 cells in the presence of 10 μg/ml IgG or anti-inhibin-α (middle), and in the presence of CM from shControl treated with (+) or without (−) 300 pM recombinant Inhibin A alone and anti-inhibin-α antibody (10 μg/ml) (bottom). The bar graphs represent the average number of meshes quantified and represent duplicate trials. […] (Bar graphs show mean±SEM, ***P<0.001 and **P<0.01 (n=3), Student's t-test. Scale Bar=500 μm.)
Other TGF-β members have been reported to have effects on angiogenesis. FIG. 26 illustrates side-by-side comparison of angiogenesis results for HMvEC-1 cells treated as indicated with other TGF-β members (activin A, BMP9, TGFβ1) either alone or in the presence of inhibin-α. The robust effect of inhibin on angiogenesis can be seen. The bar graph represents quantitation of number of meshes.
FIG. 27 illustrates the capillary sprouting and tube formation of multiple endothelial cell types (HUVEC, HMvEC, MEEC) upon treatment with 300 pM inhibin-α for 16 hours and the broad effect of inhibin on angiogenesis in different cell types. The graphs represent the number of meshes, branches, and nodes quantified. (Bar graphs show mean±SEM, ***P<0.001 and **P<0.01 (n=3), Student's t-test. Scale Bar=500 μm.)
FIG. 32 illustrates three-dimensional capillary sprouting and tube formation of HMvEC-1 cells in the presence or absence of recombinant inhibin-α (300 pM) either untreated or pretreated with 100 μg/ml TRC105 for 30 minutes prior to inhibin-α treatment (left, scale bar=500 μm). Average number meshes/field was quantified 16 h after treatment and presented in the bar graph (middle). Minimum of 3 fields were counted and data represent duplicate trials. Western blotting for SMAD1/5 phosphorylation is shown (right) in response to 20 pM inhibin-α for up to 60 minutes.
FIG. 34 illustrates capillary sprouting and tube formation (left) in HMvEC-1 cells in response to inhibin-α in the absence and presence of 5 μM of TRC105 added 30 minutes prior to treatment with inhibin-α. The bar graph on the right represents the number of meshes quantified.

[3] = system: SMAD2/3; experiment: Western blot for SMAD2/3 activation in endothelial cells (HMvEC-1, MEEC); assay type: cell-based, human, mouse
[4] = system: ERK1/2; experiment: Western blot for MAPK pathway ERK1/2 activation in endothelial cells (MEEC); assay type: cell-based, mouse; conditions: time course
Method: (§1) Mouse Embryonic Endothelial Cells (MEEC) and Human Microvascular Endothelial Cells (HMvEC-1) were examined to determine the effect of inhibin-α on SMAD1/5 activation and on MAPK pathway activation, and specifically, on ERK1/2 activation. GAPDH or B-actin was used as control. Cells were incubated with 20 pM inhibin-α and examined over a time course of 60 minutes and also examined following 30-minute incubation over a dose course from 0 to 100 pM inhibin-α. Western blot results are shown of the HMvEC-1 (FIG. 17) and MEEC (FIG. 18). FIG. 19 presents the Western blot time course results following incubation of MEEC with inhibin-α for ERK1/2 activation. FIG. 20 presents image results from staining (Psmad1/5, DAP, and merged images) for HMvEC-1 cells (left) and MEEC cells (right) following incubation in inhibin-α or untreated (UT).

[5] = system: SMAD1/5; experiment: Western blot and staining for SMAD1/5 activation in endothelial cells (HMvEC-1, MEEC); assay type: cell-based, human, mouse
Method: as §1
To determine if inhibin secreted by ovarian cancer cells activates the SMAD1/5 pathway in endothelial cells, conditioned media were obtained from stable cell lines that were generated from SKOV3 cells and OVCA420 cells with short hairpin RNA either as a control (with no effective sequence) (shControl), or directed at inhibin-α (shINHA), or stable unmodified SKOV3 cells. HMvEC-1 cells were then incubated in one of the conditioned media, as schematically illustrated in FIG. 22.

For `NC(=O)c1ccc(-c2nc(-c3ccc4c(c3)OCO4)c(-c3ccccn3)[nH]2)cc1` [SB431542], the “suppression of inhibin-induced signaling and angiogenesis” value [1] was “not ALK3/6 or ALK5/4/7 (SB431542), suppressed”.

B1: TRCN105: humanized antibody to endoglin in clinical trials (antibody, chains of the INN, looked up, V domains shown)
VH: EVKLEESGGGLVQPGGSMKLSCAASGFTFSDAWMDWVRQSPEKGLEWVAEIRSKASNHATYYAESVKGRFTISRDDSKSSVYLQMNSLRAEDTGIYYCTRWRRFFDSWGQGTTLTVSS
VL: QIVLSQSPAILSASPGEKVTMTCRASSSVSYMHWYQQKPGSSPKPWIYATSNLASGVPVRFSGSGSGTSYSLTISRVEAEDAATYYCQQWSSNPLTFGAGTKLELK
With B1 the “inhibin-α-induced angiogenesis on loss or block of endoglin or ALK1” value ([2]; endothelial cells with or without recombinant inhibin-α) was “inhibin does not induce angiogenesis”.

B2: recombinant Inhibin: recombinant Inhibin A, αβA heterodimer, used at 300 pM (protein, UniProt P05111 233-366; P08476 311-426, looked up)
Inhibin alpha chain: STPLMSWPWSPSALRLLQRPPEEPAAHANCHRVALNISFQELGWERWIVYPPSFIFHYCHGGCGLHIPPNLSLPVPGAPPTPAQPYSLLPGAQPCCAALPGTMRPLHVRTTSDGGYSFKYETVPNLLTQHCACI
Inhibin beta A chain: GLECDGKVNICCKKQFFVSFKDIGWNDWIIAPSGYHANYCEGECPSHIAGTSGSSLSFHSTVINHYRMRGHSPFANLKSCCVPTKLRPMSMLYYDDGQNIIKKDIQNMIVEECGCS
B2 was tested, and the “endothelial cell angiogenesis induced by tumor cell-produced inhibin (number of meshes)” value ([2]; HMvEC-1, CM from shControl SKOV3, antibody 10 μg/ml, recombinant Inhibin A 300 pM) was “can be recapitulated”.

B3: inhibin-α: α-subunit of inhibin, critical for the functionality of dimeric inhibin (both A and B) (protein, UniProt P05111 233-366, looked up)
Inhibin alpha chain: STPLMSWPWSPSALRLLQRPPEEPAAHANCHRVALNISFQELGWERWIVYPPSFIFHYCHGGCGLHIPPNLSLPVPGAPPTPAQPYSLLPGAQPCCAALPGTMRPLHVRTTSDGGYSFKYETVPNLLTQHCACI
B3 was tested, and the SMAD2/3 activation [3] was “not equally an activator”, the ERK1/2 activation [4] was “robust activator” and the “SMAD1/5 pathway activation by cancer cell conditioned media” value ([5]; HMvEC-1 cells in conditioned media of shControl or shINHA SKOV3/OVCA420 cells) was “activates the SMAD1/5 pathway in endothelial cells in a paracrine manner”. For the same molecule, the SMAD1/5 activation ([5]; endothelial cells, 20 pM over 60 minutes, 0 to 100 pM for 30 minutes) was “robust activator”, the “angiogenesis (number of meshes), side-by-side with other TGF-β members” value ([2]; HMvEC-1, compared with activin A, BMP9, TGFβ1) was “robust effect” and the “capillary sprouting and tube formation in multiple endothelial cell types” value ([2]; HUVEC, HMvEC, MEEC, 300 pM, 16 hours) was “broad effect”.

From patent US20220002732A1, “INHIBIN AS TARGETABLE REGULATORS OF ANGIOGENESIS” (UNIVERSITY OF SOUTH CAROLINA, priority 2016, published 2022)
